Source: publication PMC5436757, “In vivo and in vitro characterization of DdrC, a DNA damage response protein in Deinococcus radiodurans bacterium”

Tests used:
[1] = target: T1, DdrC (Deinococcus radiodurans R1 ATCC 13939, UniProt Q9RYE6 1-231); assay: EMSA; discrete complex band appears at 40 nM DdrC; 3.3 nM DNA; Buffer A: 40 mM Tris-HCl pH 7.8, 5 mM MgCl2, 1.5 mM DTT, 50 mM NaCl, 12% glycerol; 4 C (15 min stated for plasmid/viral DNA); gels run at 4 C; conditions: protein: recombinant; tags: C-terminal 6xHis (pET26b)
T1 sequence: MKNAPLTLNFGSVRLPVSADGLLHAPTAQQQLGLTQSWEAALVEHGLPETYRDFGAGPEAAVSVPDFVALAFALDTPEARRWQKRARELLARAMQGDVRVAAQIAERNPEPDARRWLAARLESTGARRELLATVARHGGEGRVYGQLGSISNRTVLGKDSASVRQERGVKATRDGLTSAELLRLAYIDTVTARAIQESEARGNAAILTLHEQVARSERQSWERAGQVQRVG

[2] = target: T1, DdrC; assay: EMSA; same efficiency as 65.4% GC 81-mer; DdrC 0.175-2.8 uM; Buffer A: 40 mM Tris-HCl pH 7.8, 5 mM MgCl2, 1.5 mM DTT, 50 mM NaCl, 12% glycerol; 4 C (15 min stated for plasmid/viral DNA); gels run at 4 C; conditions: protein: recombinant; tags: C-terminal 6xHis (pET26b); label: 5' Cy5
[3] = target: T1, DdrC; assay: EMSA; same efficiency as 37% GC 81-mer; DdrC 0.175-2.8 uM; Buffer A: 40 mM Tris-HCl pH 7.8, 5 mM MgCl2, 1.5 mM DTT, 50 mM NaCl, 12% glycerol; 4 C (15 min stated for plasmid/viral DNA); gels run at 4 C; conditions: protein: recombinant; tags: C-terminal 6xHis (pET26b); label: 5' Cy5

B1: oligo-67 ss (ssDNA)
DNA: CTGTTTAAGAAATTCACCTCGAAAGCAAGCTGATAAACCGATACAATTAAAGGCTCCTTTTGGAGCC
- binding result [1]: binds

B2: 81-mer 37% GC (ssDNA)
DNA: GATTACCACGAGGAGTATCTTAAGAATTCTGATATACTTGAAGAAGACATACAGGAACAAGAACAAAGACTGAACGAGCTT
- binding result [2]: binds

B3: 81-mer 65.4% GC (ssDNA)
DNA: GTTGCTGGACGTACAGCGCCACTATGGCCGCCTGGGCTGGACCAGCGGCGAGATTCCGTCCGGGGGCTACCAGTTTCCCAT
- binding result [3]: binds
